Results as given in US20030087827A1.

Target: proprotein convertase PC2
Assay: enzyme inhibition, pERTKR-MCA hydrolysis (fluorescence), competitive Ki

Sequence of proprotein convertase PC2 (P21661 109-637): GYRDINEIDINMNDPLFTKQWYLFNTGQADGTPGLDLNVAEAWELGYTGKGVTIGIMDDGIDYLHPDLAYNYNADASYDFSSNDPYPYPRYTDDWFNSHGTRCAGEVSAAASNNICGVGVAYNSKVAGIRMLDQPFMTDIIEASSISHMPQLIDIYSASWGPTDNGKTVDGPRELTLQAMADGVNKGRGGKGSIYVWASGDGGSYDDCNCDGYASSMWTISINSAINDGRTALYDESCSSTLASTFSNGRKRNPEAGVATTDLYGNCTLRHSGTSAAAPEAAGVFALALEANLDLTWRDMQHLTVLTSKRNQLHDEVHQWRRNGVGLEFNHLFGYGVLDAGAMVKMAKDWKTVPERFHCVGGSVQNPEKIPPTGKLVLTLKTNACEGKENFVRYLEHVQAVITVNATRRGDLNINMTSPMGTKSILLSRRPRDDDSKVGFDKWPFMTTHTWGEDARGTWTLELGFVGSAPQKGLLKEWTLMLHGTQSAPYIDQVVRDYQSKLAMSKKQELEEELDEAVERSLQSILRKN

For Ac-MRKRRR-NH2 (peptide), the Ki was 1500 µM.
